Assays:
[1] = biological target: T1, VcPHR (CPD photolyase, MBP fusion) (Vibrio cholerae, UniProt Q9KNA8 1-469); assay: SPR; photoactivated, DTT; repair during injection; SPR (SensiQ Discovery, neutravidin BioCap chip), 1X PBS (10 mM phosphate, 2.7 mM KCl, 137 mM NaCl) pH 7.4, 0.005% Tween 20, 25 C, 50 uL/min; protein in PBS with 1 mM DTT; conditions: protein: recombinant, tags: MBP (pMal-c2x, pUNC2001)
T1 sequence: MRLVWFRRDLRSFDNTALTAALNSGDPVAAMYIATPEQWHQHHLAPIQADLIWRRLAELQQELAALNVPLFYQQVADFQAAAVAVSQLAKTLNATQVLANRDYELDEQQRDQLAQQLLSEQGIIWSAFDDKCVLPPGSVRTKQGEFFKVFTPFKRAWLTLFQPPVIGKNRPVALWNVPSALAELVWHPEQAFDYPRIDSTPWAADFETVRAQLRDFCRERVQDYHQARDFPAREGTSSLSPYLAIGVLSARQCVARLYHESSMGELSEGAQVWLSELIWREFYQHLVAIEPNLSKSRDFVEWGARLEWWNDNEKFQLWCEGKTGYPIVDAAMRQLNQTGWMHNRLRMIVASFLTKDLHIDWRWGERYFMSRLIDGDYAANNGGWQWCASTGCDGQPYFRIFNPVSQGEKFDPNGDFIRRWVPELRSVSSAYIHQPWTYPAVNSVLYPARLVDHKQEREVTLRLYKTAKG

[2] = biological target: T2, CRY-DASH (VcCry1, MBP fusion) (Vibrio cholerae, UniProt Q9KR33 1-461); assay: as above; conditions: protein: recombinant; tags: MBP (pMal-c2x, pUNC2002); label: 5'-biotin
T2 sequence: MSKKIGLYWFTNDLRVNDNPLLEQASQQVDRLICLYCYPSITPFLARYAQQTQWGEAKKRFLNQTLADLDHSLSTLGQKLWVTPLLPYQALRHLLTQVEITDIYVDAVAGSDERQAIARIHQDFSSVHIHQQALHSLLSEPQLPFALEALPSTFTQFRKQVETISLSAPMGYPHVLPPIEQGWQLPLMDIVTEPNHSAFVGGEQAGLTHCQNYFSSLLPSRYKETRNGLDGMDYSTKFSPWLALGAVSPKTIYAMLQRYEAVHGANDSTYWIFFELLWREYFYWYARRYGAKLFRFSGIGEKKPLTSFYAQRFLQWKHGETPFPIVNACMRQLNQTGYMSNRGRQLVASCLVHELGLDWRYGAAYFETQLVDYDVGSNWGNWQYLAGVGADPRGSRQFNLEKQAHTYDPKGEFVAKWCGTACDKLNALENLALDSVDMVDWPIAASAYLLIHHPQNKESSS

[3] = biological target: T2, CRY-DASH (VcCry1, MBP fusion); assay: SPR; photoactivated, DTT; nonspecific, similar to BSA; SPR (SensiQ Discovery, neutravidin BioCap chip), 1X PBS (10 mM phosphate, 2.7 mM KCl, 137 mM NaCl) pH 7.4, 0.005% Tween 20, 25 C, 50 uL/min; protein in PBS with 1 mM DTT; conditions: protein: recombinant; tags: MBP (pMal-c2x, pUNC2002); label: 5'-biotin
[4] = biological target: T1, VcPHR (CPD photolyase, MBP fusion); assay: SPR; photoactivated, DTT; described as nonspecific; SPR (SensiQ Discovery, neutravidin BioCap chip), 1X PBS (10 mM phosphate, 2.7 mM KCl, 137 mM NaCl) pH 7.4, 0.005% Tween 20, 25 C, 50 uL/min; protein in PBS with 1 mM DTT; conditions: protein: recombinant, tags: MBP (pMal-c2x, pUNC2001)
[5] = biological target: T2, CRY-DASH (VcCry1, MBP fusion); assay: SPR; photoactivated, DTT; no significant binding, similar to BSA; SPR (SensiQ Discovery, neutravidin BioCap chip), 1X PBS (10 mM phosphate, 2.7 mM KCl, 137 mM NaCl) pH 7.4, 0.005% Tween 20, 25 C, 50 uL/min; protein in PBS with 1 mM DTT; conditions: protein: recombinant; tags: MBP (pMal-c2x, pUNC2002); label: 5'-biotin on strand 1; blunt
[6] = biological target: T2, CRY-DASH (VcCry1, MBP fusion); assay: SPR; photoactivated, DTT; described as nonspecific; SPR (SensiQ Discovery, neutravidin BioCap chip), 1X PBS (10 mM phosphate, 2.7 mM KCl, 137 mM NaCl) pH 7.4, 0.005% Tween 20, 25 C, 50 uL/min; protein in PBS with 1 mM DTT; conditions: protein: recombinant; tags: MBP (pMal-c2x, pUNC2002); label: 5'-biotin on strand 1; blunt
[7] = label: 5'-biotin on strand 1, blunt

GACGCAGATCTACGAATTCGCTTAATTCGCTGCACCGGATCCCGCTAG (ssDNA, UV 254 nm irradiated, mostly CPD (mixed lesions, positions not defined)) [UV-damaged ssDNA 48-mer]
Kd ([1]; label: 5'-biotin): 0.0012 µM
Kd [2]: 0.0637 µM

GACGCAGATCTACGAATTCGCTTAATTCGCTGCACCGGATCCCGCTAG (ssDNA) [undamaged ssDNA 48-mer]
Kd [3]: 117 µM
Kd ([4]; label: 5'-biotin): 14 µM

B1: UV-damaged dsDNA 48-mer (dsDNA)
DNA 1: GACGCAGATCTACGAATTCGCTTAATTCGCTGCACCGGATCCCGCTAG
DNA 2: CTAGCGGGATCCGGTGCAGCGAATTAAGCGAATTCGTAGATCTGCGTC
modifications: strand 1 UV 254 nm irradiated, mostly CPD (mixed lesions, positions not defined); complement undamaged
Kd [5]: 17.8 µM
Kd [1, 7]: 0.022 µM

B2: undamaged dsDNA 48-mer (dsDNA)
DNA 1: B1 DNA 1
DNA 2: B1 DNA 2
Kd [4, 7]: 18.7 µM
Kd [6]: 52.1 µM
